No end group written: not given here. IRDye800 = fluorophore linked at C-terminus via GGGSC linker
Assays:
[1] = target: T1, CD44 (Homo sapiens, UniProt P16070); experiment: Competitive inhibition with unlabeled peptide on SK-Hep1 cells; assay type: cell-based; conditions: competition
T1 construct: endogenous in cells; host or cells: SK-Hep1 (human HCC cells)
Description: (§1) Specific peptide binding to CD44 was further validated using competitive inhibition by adding unlabeled peptide. Approximately […] SK-Hep1 cells were grown to ˜70% confluence on cover glass in triplicate. Unlabeled peptides at concentrations of 0, 10, 20, 40, 80, and 100 μM were incubated with the cells for 30 min at 4° C. The cells were washed with PBS and incubated with 5 μM of the target peptides for another 30 min at 4° C. The cells were washed and fixed with 4% PFA for 8 min. The cells were washed with PBS and mounted with ProLong Gold reagent containing DAPI (Invitrogen).

[2] = target: T2, CD44 (Cluster of differentiation 44) (human, UniProt P16070 21-742); experiment: confocal microscopy, SK-Hep1 control siRNA against CD44 knockdown cells
T2 construct: whole, on cells; The target is tied to CD44 by siRNA knockdown in SK-Hep1 cells; also called CD44 on human SK-Hep1 HCC cells
T2 sequence (P16070 21-742): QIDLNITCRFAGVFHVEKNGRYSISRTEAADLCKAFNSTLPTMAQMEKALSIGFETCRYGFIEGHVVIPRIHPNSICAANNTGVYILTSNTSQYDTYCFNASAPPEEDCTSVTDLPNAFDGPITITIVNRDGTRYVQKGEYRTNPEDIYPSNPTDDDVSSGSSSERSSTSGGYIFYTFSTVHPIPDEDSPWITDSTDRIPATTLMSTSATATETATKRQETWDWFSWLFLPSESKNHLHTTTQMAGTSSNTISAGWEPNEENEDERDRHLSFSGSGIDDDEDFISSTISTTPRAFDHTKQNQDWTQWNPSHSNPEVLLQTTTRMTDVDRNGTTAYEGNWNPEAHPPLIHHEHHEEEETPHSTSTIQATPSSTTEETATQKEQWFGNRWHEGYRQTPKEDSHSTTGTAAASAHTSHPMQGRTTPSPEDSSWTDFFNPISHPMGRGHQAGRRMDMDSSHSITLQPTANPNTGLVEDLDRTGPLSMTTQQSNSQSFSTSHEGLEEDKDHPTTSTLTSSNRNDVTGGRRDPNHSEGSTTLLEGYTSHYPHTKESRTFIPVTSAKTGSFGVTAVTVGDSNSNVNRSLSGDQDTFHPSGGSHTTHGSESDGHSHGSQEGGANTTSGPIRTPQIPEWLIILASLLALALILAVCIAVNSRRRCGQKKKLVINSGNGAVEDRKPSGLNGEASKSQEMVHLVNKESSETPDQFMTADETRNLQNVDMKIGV

[3] = target: T2, CD44 (Cluster of differentiation 44); experiment: confocal microscopy on SK-Hep1 cells
[4] = target: T2, CD44 (Cluster of differentiation 44); experiment: flow cytometry on SK-Hep1 cells, labeled peptide 0-200 nM, 4 °C, 1 hour
Description: The apparent dissociation constant kd for peptide binding to cells was measured to assess the binding affinity [31]. IRDye800-labeled target peptides were serially diluted in PBS at concentrations of 0, 10, 20, 40, 80, 100, and 200 nM. ˜10⁵ SK-Hep1 cells were incubated with the peptides at 4° C. for 1 hour, washed with cold PBS, and the mean fluorescence intensities were measured using flow cytometry. The equilibrium dissociation constant kd=1/kₐ was calculated by performing a least squares fit of the data to the non-linear equation l=(l₀+lₘₐₓkₐ [X])/(l₀+kₐ[X]). l₀ and lₘₐₓ are the initial and maximum fluorescence intensities, corresponding to no peptide and at saturation, respectively, and [X] represents the concentration of the bound peptide. Prism 5.0 software (GraphPad Inc) was used to calculate kd.

[5] = target: T2, CD44 (Cluster of differentiation 44); experiment: competition against 5 µM WKG*-IRDye800 on SK-Hep1 cells; fourth of five concentrations of unlabeled peptide
Description: as §1

[6] = target: T2, CD44 (Cluster of differentiation 44); experiment: competition against 5 µM WKG*-IRDye800 on SK-Hep1 cells; third of five concentrations of unlabeled peptide
Description: as §1

[7] = target: T2, CD44 (Cluster of differentiation 44); experiment: competition against 5 µM WKG*-IRDye800 on SK-Hep1 cells; second of five concentrations of unlabeled peptide
Description: as §1

[8] = target: T2, CD44 (Cluster of differentiation 44); experiment: competition against 5 µM WKG*-IRDye800 on SK-Hep1 cells; first of five concentrations of unlabeled peptide (series 0, 10, 20, 40, 80, 100 µM; which five not stated)
Description: as §1

[9] = target: T2, CD44 (Cluster of differentiation 44); experiment: competition against 5 µM WKG*-IRDye800 on SK-Hep1 cells; fifth of five concentrations of unlabeled peptide
Description: as §1

T1 sequence (P16070 21-742): as above

In the case of WKGWSYLWTQQA [WKG*], the “change of WKG*-IRDye800 fluorescence intensities with increasing concentrations of unlabeled peptide” value [1] is reported as “decreased significantly”.

Molecule “rabbit anti-CD44 antibody (EPR18668, Abcam)” has a fold change in fluorescence intensity, siCL relative to siCD441 [2] of 4.1 fold, a fold change in fluorescence intensity, siCL relative to siCD442 [2] of 3.3 fold and a fold change in fluorescence intensity, siCL relative to siCD443 [2] of 3.1 fold. For the same molecule, the fold change in fluorescence intensity relative to WYK*-IRDye800 (control) [3] was 5.61 fold.

B1: WKG*-IRDye800 (peptide)
peptide: WKGWSYLWTQQAGGGSC-IRDye800
notes: Synthetic L-amino acid peptide made by Fmoc solid-phase synthesis on rink amide MBHA resin; also called CD44-directed peptide
B1 showed a Kd [4] of 43 nM.

B2: unlabeled WKG* (peptide)
peptide: WKGWSYLWTQQA
modifications: also: may carry GGGSC linker and C-terminal amide
notes: The m/z of 1913.87 printed for WKG* fits the 12-mer plus GGGSC with a C-terminal amide; also called unlabeled peptide
In the case of B2, the “fold change of fluorescence intensity relative to an equal concentration of WYK*” value [5] is reported as 0.12 fold, the “fold change of fluorescence intensity relative to an equal concentration of WYK*” value [6] is reported as 0.36 fold and the “fold change of fluorescence intensity relative to an equal concentration of WYK*” value [7] is reported as 0.61 fold. The “fold change of fluorescence intensity relative to an equal concentration of WYK*” value [8] was 1.02 fold and the “fold change of fluorescence intensity relative to an equal concentration of WYK*” value [9] was 0.1 fold.

Reference: patent US20250073355A1, “CD44-BINDING PEPTIDE REAGENTS AND METHODS” (THE REGENTS OF THE UNIVERSITY OF MICHIGAN, priority 2021, published 2025)
